Experiment [1] addresses T1, human amylin receptor (amylin 3(a) receptor: human calcitonin receptor with RAMP-3) (human, UniProt P30988 25-474; O60896 24-148).
T1 construct: whole, on cells; Assay used cell membranes of the Amylin 3(a)/CRE-luc BHK cells, not intact cells; also called hAmylin-R; hAmylinR
T1 sequence (looked up) 1: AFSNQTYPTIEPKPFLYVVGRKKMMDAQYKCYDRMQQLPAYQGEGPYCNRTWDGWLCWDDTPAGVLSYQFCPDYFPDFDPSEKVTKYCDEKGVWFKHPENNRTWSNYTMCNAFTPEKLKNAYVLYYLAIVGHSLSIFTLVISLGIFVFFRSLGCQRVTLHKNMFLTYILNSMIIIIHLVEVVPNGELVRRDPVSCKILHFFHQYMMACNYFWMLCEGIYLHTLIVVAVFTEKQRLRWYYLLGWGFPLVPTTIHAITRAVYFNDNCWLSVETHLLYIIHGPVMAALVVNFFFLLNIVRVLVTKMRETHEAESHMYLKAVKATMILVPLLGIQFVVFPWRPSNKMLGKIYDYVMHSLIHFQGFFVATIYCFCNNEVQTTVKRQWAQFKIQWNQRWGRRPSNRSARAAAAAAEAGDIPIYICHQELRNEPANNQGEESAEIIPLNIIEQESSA
T1 sequence (looked up) 2: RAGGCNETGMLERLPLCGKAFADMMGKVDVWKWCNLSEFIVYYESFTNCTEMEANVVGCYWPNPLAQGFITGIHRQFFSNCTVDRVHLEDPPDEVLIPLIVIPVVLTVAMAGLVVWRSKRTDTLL
Put plainly: SPA competition with 125I-rat amylin on membranes of BHK cells with human calcitonin receptor and RAMP-3 (Assay V). In short, it runs like this:
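Membranes from BHK Amylin 3(a)/CRE-luc cells (35 ng/μL final) were mixed with SPA beads and test compounds in 50 mM Hepes pH 7.4 with 1 mM CaCl2, 5 mM MgCl₂, 0.1% OA and 0.02% Tween20. Incubation ran 120 min at 25° C with shaking; IC₅₀ came from one-site competition fitting.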

The target in experiment [2] is T2, human calcitonin receptor (human, UniProt P30988 25-474).
T2 construct: whole, on cells; Assay used cell membranes, not intact cells; also called hCTR; hCT
T2 sequence (looked up): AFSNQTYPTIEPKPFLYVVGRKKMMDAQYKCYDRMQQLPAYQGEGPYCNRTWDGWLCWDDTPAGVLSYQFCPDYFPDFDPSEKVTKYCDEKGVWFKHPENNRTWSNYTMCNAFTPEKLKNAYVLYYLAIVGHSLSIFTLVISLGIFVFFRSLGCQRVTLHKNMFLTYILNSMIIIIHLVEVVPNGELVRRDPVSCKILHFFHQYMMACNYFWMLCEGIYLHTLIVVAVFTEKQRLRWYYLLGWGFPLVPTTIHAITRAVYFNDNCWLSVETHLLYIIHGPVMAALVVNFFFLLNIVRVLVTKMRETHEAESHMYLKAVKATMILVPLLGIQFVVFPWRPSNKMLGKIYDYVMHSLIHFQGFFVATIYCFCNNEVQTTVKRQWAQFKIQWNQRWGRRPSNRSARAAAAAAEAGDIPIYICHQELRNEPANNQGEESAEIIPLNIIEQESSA
As to the kind of experiment: SPA competition with 125I-calcitonin on membranes of BHK cells with human calcitonin receptor (Assay VII). The method in brief: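 BHK hCTR membranes 35 ng/μL + SPA beads 0.05 mg/well; buffer 50 mM Hepes pH 7.4, 1 mM CaCl2, 5 mM MgCl₂, 0.1% OA, 0.02% Tween20. 120 min, 25° C., shaking. Scintillation count; IC50 by one-site binding competition.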

In experiment [3] the target is T2, human calcitonin receptor. As to the kind of experiment: ratio IC50 hCTR / IC50 hAmylin-R (reference: human amylin receptor), SPA competition assays. In short, it runs like this: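 Scintillation proximity competition binding on cell membranes at 35 ng/μL with SPA beads, in 50 mM Hepes pH 7.4, 1 mM CaCl2, 5 mM MgCl₂, 0.1% OA, 0.02% Tween20. Incubated 120 min at 25° C with shaking. IC₅₀ from one-site competition fit.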

Numbered stars: 1 amine (or outer) side, 2 acyl side, 3 side chain; on linkers, the order of the positions; unused ones are H or OH. Bridge positions count the residues as written; N and C are the ends. Side chains are listed from the residue outwards. Ends that are not written are not given here. * marks the point of attachment. C20 diacid = O=C(O)CCCCCCCCCCCCCCCCCCC(=O)*; γGlu = O=C(O)[C@H](CCC(=O)[*:2])N[*:1]

Five molecules from patent US20140087995A1 (published 2014) can be followed below.

B1: N^ε1-[(4S)-4-carboxy-4-(19-carboxynonadecanoylamino)butanoyl]-[His14,Arg17,Pro21,Pro27,His34]-h-amylin (peptide)
peptide: K([γGlu-C20 diacid])CNTATCATQRLAHFLRHSSPNFGAIPSSTNVGHNTY-NH2
modifications: disulfide 2-7; N-terminus assumed
SMILES: CC[C@H](C)[C@H](NC(=O)[C@H](C)NC(=O)CNC(=O)[C@H](Cc1ccccc1)NC(=O)[C@H](CC(N)=O)NC(=O)[C@@H]1CCCN1C(=O)[C@H](CO)NC(=O)[C@H](CO)NC(=O)[C@H](Cc1c[nH]cn1)NC(=O)[C@H](CCCNC(=N)N)NC(=O)[C@H](CC(C)C)NC(=O)[C@H](Cc1ccccc1)NC(=O)[C@H](Cc1c[nH]cn1)NC(=O)[C@H](C)NC(=O)[C@H](CC(C)C)NC(=O)[C@H](CCCNC(=N)N)NC(=O)[C@H](CCC(N)=O)NC(=O)[C@@H](NC(=O)[C@H](C)NC(=O)[C@@H]1CSSC[C@H](NC(=O)[C@@H](N)CCCCNC(=O)CC[C@H](NC(=O)CCCCCCCCCCCCCCCCCCC(=O)O)C(=O)O)C(=O)N[C@@H](CC(N)=O)C(=O)N[C@@H]([C@@H](C)O)C(=O)N[C@@H](C)C(=O)N[C@@H]([C@@H](C)O)C(=O)N1)[C@@H](C)O)C(=O)N1CCC[C@H]1C(=O)N[C@@H](CO)C(=O)N[C@@H](CO)C(=O)N[C@H](C(=O)N[C@@H](CC(N)=O)C(=O)N[C@H](C(=O)NCC(=O)N[C@@H](Cc1c[nH]cn1)C(=O)N[C@@H](CC(N)=O)C(=O)N[C@H](C(=O)N[C@@H](Cc1ccc(O)cc1)C(N)=O)[C@@H](C)O)C(C)C)[C@@H](C)O
notes: also called compound 81
In the case of B1, the IC50 is 0.271 nM in experiment [1] and 23.6 nM in experiment [2]. For the same molecule, the “Ratio hCT/hAmylin binding” value in experiment [3] is 87.2.

B2: N^ε1-[(4S)-4-carboxy-4-[[(4S)-4-carboxy-4-(19-carboxynonadecanoylamino)butanoyl]amino]butanoyl]-[Asp14,Arg17,Pro21,Pro27,Pro34,Arg35]-h-amylin (peptide)
peptide: K([γGlu-γGlu-C20 diacid])CNTATCATQRLADFLRHSSPNFGAIPSSTNVGPRTY-NH2
modifications: disulfide 2-7; N-terminus assumed
SMILES: CC[C@H](C)[C@H](NC(=O)[C@H](C)NC(=O)CNC(=O)[C@H](Cc1ccccc1)NC(=O)[C@H](CC(N)=O)NC(=O)[C@@H]1CCCN1C(=O)[C@H](CO)NC(=O)[C@H](CO)NC(=O)[C@H](Cc1c[nH]cn1)NC(=O)[C@H](CCCNC(=N)N)NC(=O)[C@H](CC(C)C)NC(=O)[C@H](Cc1ccccc1)NC(=O)[C@H](CC(=O)O)NC(=O)[C@H](C)NC(=O)[C@H](CC(C)C)NC(=O)[C@H](CCCNC(=N)N)NC(=O)[C@H](CCC(N)=O)NC(=O)[C@@H](NC(=O)[C@H](C)NC(=O)[C@@H]1CSSC[C@H](NC(=O)[C@@H](N)CCCCNC(=O)CC[C@H](NC(=O)CC[C@H](NC(=O)CCCCCCCCCCCCCCCCCCC(=O)O)C(=O)O)C(=O)O)C(=O)N[C@@H](CC(N)=O)C(=O)N[C@@H]([C@@H](C)O)C(=O)N[C@@H](C)C(=O)N[C@@H]([C@@H](C)O)C(=O)N1)[C@@H](C)O)C(=O)N1CCC[C@H]1C(=O)N[C@@H](CO)C(=O)N[C@@H](CO)C(=O)N[C@H](C(=O)N[C@@H](CC(N)=O)C(=O)N[C@H](C(=O)NCC(=O)N1CCC[C@H]1C(=O)N[C@@H](CCCNC(=N)N)C(=O)N[C@H](C(=O)N[C@@H](Cc1ccc(O)cc1)C(N)=O)[C@@H](C)O)C(C)C)[C@@H](C)O
notes: also called compound 130
Consider B2, for which the figures for the IC50 in experiment [1] and in experiment [2] were 0.453 nM and 127 nM, respectively. Moreover, the “Ratio hCT/hAmylin binding” value in experiment [3] came to 280.

B3: N^ε1-[(4S)-4-carboxy-4-[[(4S)-4-carboxy-4-(19-carboxynonadecanoylamino)butanoyl]amino]butanoyl]-[Arg17,Pro21,Pro27,Pro31,Pro34,Arg35]-h-amylin (peptide)
peptide: K([γGlu-γGlu-C20 diacid])CNTATCATQRLANFLRHSSPNFGAIPSSTPVGPRTY-NH2
modifications: disulfide 2-7; N-terminus assumed
SMILES: CC[C@H](C)[C@H](NC(=O)[C@H](C)NC(=O)CNC(=O)[C@H](Cc1ccccc1)NC(=O)[C@H](CC(N)=O)NC(=O)[C@@H]1CCCN1C(=O)[C@H](CO)NC(=O)[C@H](CO)NC(=O)[C@H](Cc1c[nH]cn1)NC(=O)[C@H](CCCNC(=N)N)NC(=O)[C@H](CC(C)C)NC(=O)[C@H](Cc1ccccc1)NC(=O)[C@H](CC(N)=O)NC(=O)[C@H](C)NC(=O)[C@H](CC(C)C)NC(=O)[C@H](CCCNC(=N)N)NC(=O)[C@H](CCC(N)=O)NC(=O)[C@@H](NC(=O)[C@H](C)NC(=O)[C@@H]1CSSC[C@H](NC(=O)[C@@H](N)CCCCNC(=O)CC[C@H](NC(=O)CC[C@H](NC(=O)CCCCCCCCCCCCCCCCCCC(=O)O)C(=O)O)C(=O)O)C(=O)N[C@@H](CC(N)=O)C(=O)N[C@@H]([C@@H](C)O)C(=O)N[C@@H](C)C(=O)N[C@@H]([C@@H](C)O)C(=O)N1)[C@@H](C)O)C(=O)N1CCC[C@H]1C(=O)N[C@@H](CO)C(=O)N[C@@H](CO)C(=O)N[C@H](C(=O)N1CCC[C@H]1C(=O)N[C@H](C(=O)NCC(=O)N1CCC[C@H]1C(=O)N[C@@H](CCCNC(=N)N)C(=O)N[C@H](C(=O)N[C@@H](Cc1ccc(O)cc1)C(N)=O)[C@@H](C)O)C(C)C)[C@@H](C)O
With B3, the IC50 is 0.88 nM in experiment [1] and 42.8 nM in experiment [2]. Besides, in experiment [3], the “Ratio hCT/hAmylin binding” value came to 48.6.

B4: N^ε1-[(4S)-4-carboxy-4-[[(4S)-4-carboxy-4-(19-carboxynonadecanoylamino)butanoyl]amino]butanoyl]-[Arg17,Pro21,Pro27,His34]-h-amylin (peptide)
peptide: K([γGlu-γGlu-C20 diacid])CNTATCATQRLANFLRHSSPNFGAIPSSTNVGHNTY-NH2
modifications: disulfide 2-7; N-terminus assumed
SMILES: CC[C@H](C)[C@H](NC(=O)[C@H](C)NC(=O)CNC(=O)[C@H](Cc1ccccc1)NC(=O)[C@H](CC(N)=O)NC(=O)[C@@H]1CCCN1C(=O)[C@H](CO)NC(=O)[C@H](CO)NC(=O)[C@H](Cc1c[nH]cn1)NC(=O)[C@H](CCCNC(=N)N)NC(=O)[C@H](CC(C)C)NC(=O)[C@H](Cc1ccccc1)NC(=O)[C@H](CC(N)=O)NC(=O)[C@H](C)NC(=O)[C@H](CC(C)C)NC(=O)[C@H](CCCNC(=N)N)NC(=O)[C@H](CCC(N)=O)NC(=O)[C@@H](NC(=O)[C@H](C)NC(=O)[C@@H]1CSSC[C@H](NC(=O)[C@@H](N)CCCCNC(=O)CC[C@H](NC(=O)CC[C@H](NC(=O)CCCCCCCCCCCCCCCCCCC(=O)O)C(=O)O)C(=O)O)C(=O)N[C@@H](CC(N)=O)C(=O)N[C@@H]([C@@H](C)O)C(=O)N[C@@H](C)C(=O)N[C@@H]([C@@H](C)O)C(=O)N1)[C@@H](C)O)C(=O)N1CCC[C@H]1C(=O)N[C@@H](CO)C(=O)N[C@@H](CO)C(=O)N[C@H](C(=O)N[C@@H](CC(N)=O)C(=O)N[C@H](C(=O)NCC(=O)N[C@@H](Cc1c[nH]cn1)C(=O)N[C@@H](CC(N)=O)C(=O)N[C@H](C(=O)N[C@@H](Cc1ccc(O)cc1)C(N)=O)[C@@H](C)O)C(C)C)[C@@H](C)O
notes: also called compound 86
With B4, the half-maximal inhibitory concentration (IC50) was determined as 0.833 nM in experiment [1] and 133 nM in experiment [2]. For the same molecule, the “Ratio hCT/hAmylin binding” value in experiment [3] was 159.

B5: N^ε1-[(4S)-4-carboxy-4-(19-carboxynonadecanoylamino)butanoyl]-[His14,Arg17,Pro21,Pro27,Pro31,Pro34]-h-amylin (peptide)
peptide: K([γGlu-C20 diacid])CNTATCATQRLAHFLRHSSPNFGAIPSSTPVGPNTY-NH2
modifications: disulfide 2-7; N-terminus assumed
SMILES: CC[C@H](C)[C@H](NC(=O)[C@H](C)NC(=O)CNC(=O)[C@H](Cc1ccccc1)NC(=O)[C@H](CC(N)=O)NC(=O)[C@@H]1CCCN1C(=O)[C@H](CO)NC(=O)[C@H](CO)NC(=O)[C@H](Cc1c[nH]cn1)NC(=O)[C@H](CCCNC(=N)N)NC(=O)[C@H](CC(C)C)NC(=O)[C@H](Cc1ccccc1)NC(=O)[C@H](Cc1c[nH]cn1)NC(=O)[C@H](C)NC(=O)[C@H](CC(C)C)NC(=O)[C@H](CCCNC(=N)N)NC(=O)[C@H](CCC(N)=O)NC(=O)[C@@H](NC(=O)[C@H](C)NC(=O)[C@@H]1CSSC[C@H](NC(=O)[C@@H](N)CCCCNC(=O)CC[C@H](NC(=O)CCCCCCCCCCCCCCCCCCC(=O)O)C(=O)O)C(=O)N[C@@H](CC(N)=O)C(=O)N[C@@H]([C@@H](C)O)C(=O)N[C@@H](C)C(=O)N[C@@H]([C@@H](C)O)C(=O)N1)[C@@H](C)O)C(=O)N1CCC[C@H]1C(=O)N[C@@H](CO)C(=O)N[C@@H](CO)C(=O)N[C@H](C(=O)N1CCC[C@H]1C(=O)N[C@H](C(=O)NCC(=O)N1CCC[C@H]1C(=O)N[C@@H](CC(N)=O)C(=O)N[C@H](C(=O)N[C@@H](Cc1ccc(O)cc1)C(N)=O)[C@@H](C)O)C(C)C)[C@@H](C)O
For the molecule B5, the half-maximal inhibitory concentration (IC50) in experiment [1] worked out at 0.082 nM; in experiment [2], 2.04 nM. In addition, the “Ratio hCT/hAmylin binding” value in experiment [3] is 24.8.
